Laboratory results published in paper PMC5309844.

Biological target: full-length recombinant human NR1 protein (human) (UniProt Q05586)

recombinant human PDI, sequence (P07237 18-508): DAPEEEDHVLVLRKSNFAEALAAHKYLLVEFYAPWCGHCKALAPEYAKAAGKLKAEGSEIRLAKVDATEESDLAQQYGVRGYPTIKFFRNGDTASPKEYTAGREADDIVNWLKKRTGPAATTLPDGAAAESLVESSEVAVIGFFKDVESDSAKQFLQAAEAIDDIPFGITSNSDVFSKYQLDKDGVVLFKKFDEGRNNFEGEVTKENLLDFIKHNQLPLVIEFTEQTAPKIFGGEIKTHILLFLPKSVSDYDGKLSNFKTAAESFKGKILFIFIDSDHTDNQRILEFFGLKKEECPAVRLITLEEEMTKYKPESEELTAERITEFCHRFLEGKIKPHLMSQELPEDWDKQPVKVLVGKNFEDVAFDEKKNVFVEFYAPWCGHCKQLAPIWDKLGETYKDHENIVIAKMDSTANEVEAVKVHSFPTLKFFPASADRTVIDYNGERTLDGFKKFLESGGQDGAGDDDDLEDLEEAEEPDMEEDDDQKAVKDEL

amount of thiols on recombinant NR1 protein after 2 h with recombinant PDI at room temperature (in vitro thiol reductase assay, modified biotin switch and Western blot), against vehicle: 3.2 fold
Substance: recombinant human PDI (from UniProt P07237 18-508) (enzyme)
